Measurements taken from patent US20160151452A1.

What was measured:
EphA8-Fc = assay: SPR, cupredoxin immobilised on CM5 chip, 100 nM Eph-Fc injected
EphB1-Fc = assay: as above
EphB1-Fc, sequence (P09759 18-540): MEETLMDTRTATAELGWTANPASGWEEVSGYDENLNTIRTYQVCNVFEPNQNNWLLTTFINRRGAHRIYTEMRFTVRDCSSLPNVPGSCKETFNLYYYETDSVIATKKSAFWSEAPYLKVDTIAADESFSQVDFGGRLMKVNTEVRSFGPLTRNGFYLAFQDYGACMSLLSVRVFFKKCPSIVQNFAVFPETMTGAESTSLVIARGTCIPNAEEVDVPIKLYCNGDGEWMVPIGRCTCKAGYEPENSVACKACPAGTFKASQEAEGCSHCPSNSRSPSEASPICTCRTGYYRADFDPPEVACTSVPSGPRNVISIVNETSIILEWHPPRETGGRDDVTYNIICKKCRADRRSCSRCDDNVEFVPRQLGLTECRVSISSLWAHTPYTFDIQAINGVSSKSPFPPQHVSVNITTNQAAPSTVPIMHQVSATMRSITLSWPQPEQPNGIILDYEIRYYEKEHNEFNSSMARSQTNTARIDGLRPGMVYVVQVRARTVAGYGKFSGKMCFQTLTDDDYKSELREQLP

EphA8-Fc, sequence (O09127 27-541): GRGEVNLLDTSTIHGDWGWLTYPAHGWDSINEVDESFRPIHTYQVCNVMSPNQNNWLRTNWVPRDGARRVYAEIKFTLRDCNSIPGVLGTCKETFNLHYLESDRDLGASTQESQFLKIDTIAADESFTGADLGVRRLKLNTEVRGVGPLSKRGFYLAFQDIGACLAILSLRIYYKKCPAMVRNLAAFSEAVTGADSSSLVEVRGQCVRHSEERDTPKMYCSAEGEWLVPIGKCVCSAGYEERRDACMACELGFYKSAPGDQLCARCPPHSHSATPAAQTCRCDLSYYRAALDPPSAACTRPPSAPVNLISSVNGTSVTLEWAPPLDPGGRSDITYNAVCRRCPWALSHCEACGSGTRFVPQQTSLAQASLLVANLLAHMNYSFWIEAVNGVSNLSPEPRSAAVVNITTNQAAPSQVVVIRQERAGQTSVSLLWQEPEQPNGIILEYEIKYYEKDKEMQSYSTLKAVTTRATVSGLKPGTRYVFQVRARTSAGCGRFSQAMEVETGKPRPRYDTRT

B1: rusticyanin from Thiobacillus ferrooxidans (protein)
chain: GTLDTTWKEATLPQVKAMLEKDTGKVSGDTVTYSGKTVHVVAAAVLPGFPFPSFEVHDKKNPTLEIPAGATVDVTFINTNKGFGHSFDITKKGPPYAVMPVIDPIVAGTGFSPVPKDGKFGYTDFTWHPTAGTYYYVCQIPGHAATGMFGKIVVK
Req (saturating resonance) (EphA8-Fc): 79 RU | Req (saturating resonance) (EphB1-Fc): 79 RU
